From patent publication US20250154268A1 (NONA BIOSCIENCES SUZHOU, published 2025)
Positions count from the first letter of the chain named. Names may count otherwise. Read-outs that look alike come from different tables or passages of the source.

How the values were obtained:
[1] = molecular target: T1, human CD25 (human, UniProt P01589 22-272); assay: flow cytometry, Karpas299 cells
T1 construct: whole, on cells; Always presented on cells; also called huCD25; IL2Rα
T1 sequence (looked up): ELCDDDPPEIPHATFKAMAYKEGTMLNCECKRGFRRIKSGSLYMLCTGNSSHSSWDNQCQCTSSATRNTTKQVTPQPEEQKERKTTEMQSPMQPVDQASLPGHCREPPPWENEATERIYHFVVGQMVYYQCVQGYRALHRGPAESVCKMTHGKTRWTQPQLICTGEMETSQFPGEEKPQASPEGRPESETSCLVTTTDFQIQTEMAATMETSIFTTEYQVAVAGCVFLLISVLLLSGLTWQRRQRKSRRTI
Protocol: (§1) This example was intended to study the in-vitro binding activity of H2L2 monoclonal antibodies against human CD25 to human/cynomolgus monkey CD25. […] Briefly, the CHOK1-huCD25 cells and HEK293-cynoCD25 cells were digested, the SU-DHL-1 cells, Karpas299 cells, Treg cells and Teff cells were collected, and the cells were resuspended in PBS containing 2% BSA. The cells were adjusted to a cell density of 1×10⁶ cells/mL, respectively. […] The cells were incubated at 4° C. for 1 hour in the dark. After the incubation, the cells were rinsed twice by adding pre-chilled PBS containing 2% BSA at 100 μL/well, and centrifuged at 500 g at 4° C. for 5 minutes, and the supernatant was discarded. […] The cells were washed twice by adding pre-chilled PBS containing 2% BSA at 100 μL/well, and centrifuged at 500 g at 4° C. for 5 minutes, and the supernatant was discarded. Finally, the cells were resuspended in pre-chilled PBS containing 2% BSA at 200 μL/well, and the fluorescence signal values were read using a BD CantoII flow cytometer.

[2] = molecular target: T1, human CD25; assay: flow cytometry, SU-DHL-1 cells
Protocol: (§2) Briefly, the CHOK1-huCD25 cells and HEK293-cynoCD25 cells were digested, the SU-DHL-1 cells, Karpas299 cells, Treg cells and Teff cells were collected, and the cells were resuspended in PBS containing 2% BSA. The cells were adjusted to a cell density of 1×10⁶ cells/mL, respectively. […] The cells were incubated at 4° C. for 1 hour in the dark. After the incubation, the cells were rinsed twice by adding pre-chilled PBS containing 2% BSA at 100 μL/well, and centrifuged at 500 g at 4° C. for 5 minutes, and the supernatant was discarded. […] The cells were washed twice by adding pre-chilled PBS containing 2% BSA at 100 μL/well, and centrifuged at 500 g at 4° C. for 5 minutes, and the supernatant was discarded. Finally, the cells were resuspended in pre-chilled PBS containing 2% BSA at 200 μL/well, and the fluorescence signal values were read using a BD CantoII flow cytometer.

[3] = molecular target: T1, human CD25; assay: flow cytometry, SU-DHL-1 cells; remark: listed apart in the source
Protocol: as §2

[4] = molecular target: T1, human CD25; assay: flow cytometry, CHOK1-huCD25 cells
Protocol: as §1

[5] = molecular target: T2, cynomolgus monkey CD25 (cynomolgus monkey, UniProt H6WS54 22-272); assay: flow cytometry, HEK293-cynoCD25 cells
T2 construct: whole, on cells; also called cynoCD25
T2 sequence: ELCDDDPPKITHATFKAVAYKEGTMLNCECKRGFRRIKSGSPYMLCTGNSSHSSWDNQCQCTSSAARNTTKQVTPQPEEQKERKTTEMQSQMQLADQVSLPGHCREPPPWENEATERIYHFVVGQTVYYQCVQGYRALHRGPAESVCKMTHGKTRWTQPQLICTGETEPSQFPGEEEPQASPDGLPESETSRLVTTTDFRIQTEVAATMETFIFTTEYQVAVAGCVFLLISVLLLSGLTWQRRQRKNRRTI
Protocol: as §1

[6] = molecular target: T1, human CD25; assay: flow cytometry, Karpas299 cells; remark: listed apart in the source
Protocol: as §1

[7] = molecular target: T1, human CD25; assay: flow cytometry, Karpas299 cells; remark: listed apart in the source
Protocol: as §1

[8] = molecular target: T1, human CD25; assay: flow cytometry, SU-DHL-1 cells; remark: listed apart in the source
Protocol: as §2

[9] = molecular target: T2, cynomolgus monkey CD25; assay: flow cytometry, HEK293-cynoCD25 cells; remark: listed apart in the source
Protocol: as §1

[10] = molecular target: T1, human CD25; assay: flow cytometry, Karpas299 cells; remark: listed apart in the source
Protocol: as §1

[11] = molecular target: T1, human CD25; assay: flow cytometry, SU-DHL-1 cells; remark: listed apart in the source
Protocol: as §2

B1: PR008015 (antibody, human IgG1, kappa, V domains shown)
VH: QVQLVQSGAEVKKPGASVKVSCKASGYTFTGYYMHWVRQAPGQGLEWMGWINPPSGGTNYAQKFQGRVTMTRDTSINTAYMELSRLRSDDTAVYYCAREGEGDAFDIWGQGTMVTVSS
VL: DFQMTQSPSTLSASVGDRVTITCRASQSISSWLAWYQQKPGKAPKLLIYEASSLKSGVPSRFSGSESGTEFTLTISSLQPDDFATYYCHQYMSYSTFGQGTKVEIKR
notes: PTM variant of PR006931 (VH:N54P, S60Y); human IgG1
**Q.** Which results are given for B1?
**A.** EC50 [1]: 20 nM; EC50 [2]: 0.85 nM

B2: PR005497 (antibody, human IgG1, kappa, V domains shown)
VH: QVQLQQSGPGLVKPSQTLSLTCAISGDSVSNNNAAWNWIRQSPSRGLEWLGRTHYRSDRSKWYNDYAVSVKSRITINSDTFKNQFSLQLNPVTPEDTAVYYCARDWDHDAFDIWGQGTMVTVSS
VL: B1 VL with F2I, S31G, E50K, K55E, S56T, E66G, H89L, M92N, S93G, Q99G
notes: Fully human recombinant IgG1, kappa; also called 245E10F1
**Q.** B2 was tested. Which EC50 [3] did it give?
**A.** 2.4 nM

**Q.** And the EC50 [4]?
**A.** 2.73 nM

**Q.** What about the EC50 [5] of the same binder?
**A.** 6.4 nM

**Q.** And the EC50 [6]?
**A.** 2.81 nM

B3: PR006110 (antibody, V domains shown)
VH: QVQLQESGPGLVKPSGTLSLTCAVSGGSISSSNYWSWVRQPPGKGLEWIGEIYHSGSTNYNPSLKSRVTISLDKSKNQFSLKLSSVTAADTAVYYCARDRNYGSGNYPHYYHYYGMDVWGQGTTVTVSS
VL: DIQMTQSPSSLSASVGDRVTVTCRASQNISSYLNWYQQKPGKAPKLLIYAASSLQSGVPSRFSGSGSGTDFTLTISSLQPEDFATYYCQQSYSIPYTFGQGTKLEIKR
notes: Fully human recombinant IgG1, kappa; also called 307B8G6
**Q.** For B3, which EC50 [7] is on record?
**A.** 1.73 nM

**Q.** And the EC50 [8]?
**A.** 1.95 nM

B4: PR008197 (antibody, human IgG1, kappa, V domains shown)
VH: QVQLQGSGPGLVKPSGTLSLTCAVSPGSISSSNWWNWVRQPPGKGLEWIGEIYHRGSTNYNPSLKSRVTISVDKSKNQFSLKLSSVTAADTAVYYCTHYYYDSSGYYYGYWGQGTLVTVSS
VL: DIVMTQSPLSLPVTPGEPASISCRSSQSLLHRDVYNYVDWYLQKPGQSPQLLIYLGSNRASGVPDRFSGSGSGTDFTLKISRVEAEDVGVYYCLQALQTPLTFGGGTKVEIKR
notes: PTM variant of PR005436 (VH:D26P); human IgG1
**Q.** For B4, which EC50 [9] is on record?
**A.** 2.25 nM

**Q.** And the EC50 [10]?
**A.** 8 nM

**Q.** What about the EC50 [11] of the same binder?
**A.** 1.55 nM
